{"source": "patent US6033823A", "about": "“Mutated penicillin G acylase genes” (priority 1994, dated 2000)", "molecules": {"B1": {"name": "Alcaligenes faecalis Penicillin G acylase mutant A:F147Y (Alcaligenes faecalis; F173Y) (protein)", "chain 1": "QVQSVEVMRDSYGVPHVFADSHYGLYYGYGYAVAQDRLFQMDMARRSFVGTTAAVLGPGEQDAYVKYDMQVRQNFTPASIQRQIAALSKDERDIFRGYADGYNAYLEQVRRRPELLPKEYVDFDFQPEPLTDFDVVMIWVGSMANRYSDTNLEVTALAMRQSLEKQHGPERGRALFDELLWINDTTAPTTVPAPAAEHKPQA", "chain 2": "SNLWSTRPERVQEGSTVLINGPQFGWYNPAYTYGIGLHGAGFDVVGNTPFAYPIVLFGTNSEIAWGATAGPQDVVDIYQEKLNPSRADQYWFNNAWRTMEQRKERIQVRGQADREMTIWRTVHGPVMQFDYDQGAAYSKKRSWDGYEVQSLLAWLNVAKARNWTEFLDQASKMAISINWYYADKHGNIGYVSPAFLPQRPADQDIRVPAKGDGSMEWLGIKSFDAIPKAYNPPQGYLVNWNNKPAPDKTNTDTYYWTYGDRMNELVSQYQQKDLFSVQEIWEFNQKASYSDVNWRYFRPHLEKLAQQLPADDSSKAALTMLLAWDGMEQDQGGQNAGPARVLFKTWLEEMYKQVLMPVVPESHRAMYSQTGFATQQGPNPGSINLSMGTKVLLRALVLEAHPDPKRVNVFGERSSQEIMHTALQNAQARLSQEQGAQMARWTMPTSVHRFSDKNFTGTPQTMPGNTFAFTGYQNRGTENNRVVFDAKGVEFCDAMPPGQSGFTDRNGVRSPHYEDQLKLYENFECKTMDVTHADIRRNAQSSTMLLIQPQP", "notes": "alpha 202 aa, beta 551 aa; recombinant, E. coli host"}}, "key": {"[1]": {"target": "T1, Alcaligenes faecalis Penicillin G acylase, wild type (α subunit SEQ ID NO:27, β subunit SEQ ID NO:32) (Alcaligenes faecalis, UniProt O34142)", "T1 construct": "alpha 202 aa, beta 551 aa; likely recombinant, E. coli host", "T1 sequence (O34142 27-228)": "B1 chain 1 with Y147F", "T1 sequence (O34142 266-816)": "B1 chain 2", "experiment": "Deacylation kinetics and phenylacetic acid product inhibition, wild type PenG acylase", "assay_type": "biochemical", "conditions": "Table 8, wt AF; NIPAB, 0.1 M NaH2PO4, pH 7.5, 25° C.", "procedure": "In order to determine enzymatic activity the acylases were incubated with substrate at room temperature in buffered solution. In case β-lactamase impurity was expected to be present in the enzyme preparations, 1.0 mM -lactamase inhibitor 6-bromo-penicillanic acid was added to the assay. The reactions were stopped by adding an excess PMSF. For some mutants which were less sensitive to PMSF inhibition, the reactions were stopped by adding 0.5 M HCl or 0.5 M acetic acid until the pH was between 3 and 4. When reactions were subsequently analysed by HPLC, the reactions were stopped by dilution with the correponding elution solvent (see table 1). […]\n(§1) The composition of the reaction mixtures was determined by high-performanceliquid chromatography (HPLC)(table 1). Concentrations were determined by using standards of known concentration.\nIn a continuous assay Penicillin G acylase was assayed spectro-fotometrically with the chromogenic substrate NIPAB [6-nitro-3-phenylacetamido-benzoic acid]. The liberation of 3-amino-6-nitrobenzoic acid was monitored by measuring the extinction at 405 nm in a Kontron 610 kinetic spectrofotometer. […]\nInitial rate measurements were performed with excess substrate over the enzyme. Catalytic parameters were derived from least-squares fitting of the measured initial rates plotted for various substrate concentrations according to the Michaelis-Menten equation. […]"}, "[2]": {"substrate": "CC1(C)S[C@@H]2[C@H](NC(=O)Cc3ccccc3)C(=O)N2[C@H]1C(=O)O", "experiment": "Deacylation kinetics, mutant A:F147Y", "assay_type": "biochemical, Alcaligenes faecalis", "conditions": "other: A:F147Y; 40 mM NaH2PO4, pH 7.5, 37° C.; pH 7.5; 37.0 °C", "procedure": "(§2) In case β-lactamase impurity was expected to be present in the enzyme preparations, 1.0 mM -lactamase inhibitor 6-bromo-penicillanic acid was added to the assay. The reactions were stopped by adding an excess PMSF. For some mutants which were less sensitive to PMSF inhibition, the reactions were stopped by adding 0.5 M HCl or 0.5 M acetic acid until the pH was between 3 and 4. When reactions were subsequently analysed by HPLC, the reactions were stopped by dilution with the correponding elution solvent (see table 1). In addition substrates were incubated under assay conditions in absence of enzyme. If necessary enzyme assays were corrected for non-enzymatic hydrolysis\nas §1\n(§3) In a continuous assay Penicillin G acylase was assayed spectro-fotometrically with the chromogenic substrate NIPAB [6-nitro-3-phenylacetamido-benzoic acid]. The liberation of 3-amino-6-nitrobenzoic acid was monitored by measuring the extinction at 405 nm in a Kontron 610 kinetic spectrofotometer. […] Initial rate measurements were performed with varying concentration of NIPAB.\n(§4) The kinetics of enzymatic hydrolysis of PenG, PenV, CefG were also studied by alkaline titration (0, OlM KOH), using a Radiometer pH-stat. All experiments were carried out in a buffer free medium.\n(§5) Initial rate measurements were performed with excess substrate over the enzyme. Catalytic parameters were derived from least-squares fitting of the measured initial rates plotted for various substrate concentrations according to the Michaelis-Menten equation."}, "[3]": {"substrate": "CC1(C)S[C@@H]2[C@H](NC(=O)COc3ccccc3)C(=O)N2[C@H]1C(=O)O", "experiment": "Deacylation kinetics, mutant A:F147Y", "assay_type": "biochemical, Alcaligenes faecalis", "conditions": "other: A:F147Y; 40 mM NaH2PO4, pH 7.5, 37° C.; pH 7.5; 37.0 °C", "procedure": "as §2, §1, §3, §4, §5"}, "[4]": {"substrate": "CC1(C)S[C@@H]2[C@H](NC(=O)[C@H](N)c3ccccc3)C(=O)N2[C@H]1C(=O)O", "experiment": "Deacylation kinetics, mutant A:F147Y", "assay_type": "biochemical, Alcaligenes faecalis", "conditions": "other: A:F147Y; 20 mM NaH2PO4, pH 7.0, 37° C.; pH 7.0; 37.0 °C", "procedure": "as §2, §1, §3, §4, §5"}, "[5]": {"substrate": "O=C(Cc1ccccc1)Nc1ccc([N+](=O)[O-])c(C(=O)O)c1", "experiment": "Deacylation kinetics, mutant A:F147Y", "assay_type": "biochemical, Alcaligenes faecalis", "conditions": "other: A:F147Y; 0.1M NaH2PO4, pH 7.5, 25° C.; pH 7.5; 25.0 °C", "procedure": "as §2, §1, §3, §4, §5"}, "[6]": {"substrate": "CC1(C)S[C@@H]2[C@H](NC(=O)[C@H](N)c3ccc(O)cc3)C(=O)N2[C@H]1C(=O)O", "experiment": "Deacylation kinetics, mutant A:F147Y", "assay_type": "biochemical, Alcaligenes faecalis", "conditions": "other: A:F147Y; 20 mM NaH2PO4, pH 7.0, 37° C.; pH 7.0; 37.0 °C", "procedure": "as §2, §1, §3, §4, §5"}, "[7]": {"substrate": "CC1=C(C(=O)O)N2C(=O)[C@@H](NC(=O)Cc3ccccc3)[C@H]2SC1", "experiment": "Deacylation kinetics, mutant A:F147Y", "assay_type": "biochemical, Alcaligenes faecalis", "conditions": "other: A:F147Y; 20 mM NaH2PO4, pH 7.5, 37° C.; pH 7.5; 37.0 °C", "procedure": "as §2, §1, §3, §4, §5"}, "[8]": {"substrate": "NC(=O)[C@H](N)c1ccccc1", "experiment": "Deacylation kinetics, mutant A:F147Y", "assay_type": "biochemical, Alcaligenes faecalis", "conditions": "other: A:F147Y; 20 mM NaH2PO4, pH 7.0, 37° C.; pH 7.0; 37.0 °C", "procedure": "as §2, §1, §3, §4, §5"}}, "note": "Changes are numbered by the printed parent chain. In names and notes the source's numbering stands."}
{"molecule": "O=C(Cc1ccccc1)Nc1ccc([N+](=O)[O-])c(C(=O)O)c1", "note": "[NIPAB, 6-nitro-3-phenylacetamido-benzoic acid]", "values": [{"measurement": "Vmax", "setting": "[1]", "value": 37.0, "unit": "U/mg"}]}
{"molecule": "B1", "values": [{"measurement": "Km", "setting": "[2]", "value": 4, "unit": "µM"}, {"measurement": "Vmax", "setting": "[2]", "value": 5.9, "unit": "U/mg"}, {"measurement": "Km", "setting": "[3]", "value": 51, "unit": "µM"}, {"measurement": "Vmax", "setting": "[3]", "value": 0.8, "unit": "U/mg"}, {"measurement": "Km", "setting": "[4]", "value": 2600, "unit": "µM"}, {"measurement": "Vmax", "setting": "[4]", "value": 13.6, "unit": "U/mg"}, {"measurement": "Km", "setting": "[5]", "value": 5, "unit": "µM"}, {"measurement": "Vmax", "setting": "[5]", "value": 18.0, "unit": "U/mg"}, {"measurement": "Km", "setting": "[6]", "value": 19, "unit": "mM"}, {"measurement": "Vmax", "setting": "[6]", "value": 0.1, "unit": "U/mg"}, {"measurement": "Km", "setting": "[7]", "value": 6, "unit": "µM"}, {"measurement": "Vmax", "setting": "[7]", "value": 4.0, "unit": "U/mg"}, {"measurement": "Km", "setting": "[8]", "value": 1700, "unit": "µM"}, {"measurement": "Vmax", "setting": "[8]", "value": 32.7, "unit": "U/mg"}]}
